The values that follow come from patent publication US20040110930A1.

“And” between values parts separate entries of the source, which are not always exact repeats. Equal values may be shown once.

In assay [1] the target is 38C13 scFv protein. The experiment in a line: ELISA, coated 38C13 scFv 5 ug/ml; 50.000 ng Fab; background subtracted.
Assay [2] addresses 38C13 scFv protein. The experiment in a line: ELISA, coated 38C13 scFv 5 ug/ml; 3.125 ng Fab; background subtracted. A general note: An ELISA detects its analyte on a solid surface through an enzyme-linked reagent.
For assay [3], the target named is 38C13 scFv protein. The experiment in a line: ELISA, coated 38C13 scFv 5 ug/ml; 0.391 ng Fab; background subtracted.
Assay [4] concerns the target 38C13 scFv protein. Put plainly: ELISA, coated 38C13 scFv 5 ug/ml; 12.500 ng Fab; background subtracted.
Assay [5] addresses 38C13 scFv protein. Put plainly: ELISA, coated 38C13 scFv 5 ug/ml; 0.049 ng Fab; background subtracted.
Assay [6] deals with 38C13 scFv protein. Put plainly: ELISA, coated 38C13 scFv 5 ug/ml; 6.250 ng Fab; background subtracted.
In assay [7] the target is 38C13 scFv protein. The experiment in a line: ELISA, coated 38C13 scFv 5 ug/ml; 0.098 ng Fab; background subtracted.
For assay [8], the target named is 38C13 scFv protein. Put plainly: ELISA, coated 38C13 scFv 5 ug/ml; 1.563 ng Fab; background subtracted.
For assay [9], the target named is 38C13 scFv protein. The experiment in a line: ELISA, coated 38C13 scFv 5 ug/ml; 0.781 ng Fab; background subtracted.
Assay [10] concerns the target 38C13 scFv protein. The experiment in a line: ELISA, coated 38C13 scFv 5 ug/ml; 25.000 ng Fab; background subtracted.
Assay [11] concerns the target 38C13 scFv protein. Put plainly: ELISA, coated 38C13 scFv 5 ug/ml; 0.195 ng Fab; background subtracted.
The target of assay [12] is 38C13 scFv protein. Put plainly: ELISA, coated 38C13 scFv 5 ug/ml; 0.293 ng MAb; background subtracted.
Assay [13] concerns the target 38C13 scFv protein. The experiment in a line: ELISA, coated 38C13 scFv 5 ug/ml; 2.344 ng MAb; background subtracted.
The target of assay [14] is 38C13 scFv protein. The experiment in a line: ELISA, coated 38C13 scFv 5 ug/ml; 1.172 ng MAb; background subtracted.
The target in assay [15] is 38C13 scFv protein. The experiment in a line: ELISA, coated 38C13 scFv 5 ug/ml; 18.750 ng MAb; background subtracted.
Assay [16] addresses 38C13 scFv protein. The experiment in a line: ELISA, coated 38C13 scFv 5 ug/ml; 4.688 ng MAb; background subtracted.
Assay [17] addresses 38C13 scFv protein. Put plainly: ELISA, coated 38C13 scFv 5 ug/ml; 9.375 ng MAb; background subtracted.
The target of assay [18] is 38C13 scFv protein. The experiment in a line: ELISA, coated 38C13 scFv 5 ug/ml; 0.586 ng MAb; background subtracted.
For assay [19], the target named is 38C13 scFv protein. The experiment in a line: ELISA, coated 38C13 scFv 5 ug/ml; 150.000 ng MAb; background subtracted.
Assay [20] addresses 38C13 scFv protein. Put plainly: ELISA, coated 38C13 scFv 5 ug/ml; 75.000 ng MAb; background subtracted.
The target of assay [21] is 38C13 scFv protein. The experiment in a line: ELISA, coated 38C13 scFv 5 ug/ml; 37.500 ng MAb; background subtracted.
The target of assay [22] is 38C13 scFv protein. The experiment in a line: ELISA, coated 38C13 scFv 5 ug/ml; 0.146 ng MAb; background subtracted.

B1: control S1C5 Fab produced from mouse ascites MAb using the ImmunoPure Fab Kit (Fab, V domains shown)
VH: EVKLEQSGAELVKPGASVKISCKASGYTFTDHVIHWVKQRPEQGLEWIGFISPGNGDIRYNEKFKDKATLTADKSSSTAYMQLNSLTSEDSAVYFCKRSFYYYDDNYGDYWGQGTTLTVSS
VL: QIVLTQSPAIMSASLGERVTMTCTASSSVSSSYFHWYQQKPGSSPKLWIYTTSNLASGVPARFSGSGSGTSYSLTISSMEAEDAATYYCHQYHRSPLTFGAGTKLELKR
Turning to B1, the A450 with 38C13 scFv protein [1] was 0.481 A450 and 0.516 A450; in the assay with 38C13 scFv protein [2] it was 0.273 A450 and 0.266 A450; in the assay with 38C13 scFv protein [3], 0.047 A450 and 0.05 A450; with 38C13 scFv protein [4], 0.46 A450 and 0.465 A450; with 38C13 scFv protein [5], 0.008 A450 and 0.003 A450; with 38C13 scFv protein [6] it was 0.346 A450 and 0.363 A450. In addition, the A450 was 0.009 A450 and 0.018 A450 with 38C13 scFv protein [7]; 0.168 A450 and 0.171 A450 with 38C13 scFv protein [8]; 0.095 A450 and 0.094 A450 with 38C13 scFv protein [9]; 0.498 A450 and 0.51 A450 with 38C13 scFv protein [10]; 0.03 A450 and 0.023 A450 with 38C13 scFv protein [11].

B2: Control S1C5 MAb from mouse ascites fluid (antibody, V domains shown)
VH: EVKLEQSGAELVKPGASVKISCKASGYTFTDHVIHWVKQRPEQGLEWIGFISPGNGDIRYNEKFKDKATLTADKSSSTAYMQLNSLTSEDSAVYFCKRSFYYYDDNYGDYWGQGTTLTVSS
VL: QIVLTQSPAIMSASLGERVTMTCTASSSVSSSYFHWYQQKPGSSPKLWIYTTSNLASGVPARFSGSGSGTSYSLTISSMEAEDAATYYCHQYHRSPLTFGAGTKLELKR
For the molecule B2, the A450 was 0.025 A450 and 0.023 A450 with 38C13 scFv protein [12]; 0.18 A450 and 0.179 A450 with 38C13 scFv protein [13]; 0.105 A450 and 0.096 A450 with 38C13 scFv protein [14]; 0.476 A450 and 0.429 A450 with 38C13 scFv protein [15]; 0.283 A450 and 0.284 A450 with 38C13 scFv protein [16]; 0.39 A450 and 0.395 A450 with 38C13 scFv protein [17]. In addition, the A450 with 38C13 scFv protein [18] was 0.053 A450 and 0.047 A450; with 38C13 scFv protein [19], 0.517 A450 and 0.538 A450; with 38C13 scFv protein [20] it was 0.532 A450 and 0.515 A450; in the assay with 38C13 scFv protein [21] it was 0.443 A450 and 0.497 A450; with 38C13 scFv protein [22], 0.012 A450 and 0.01 A450.

B3: pLSBC1798 produced S1C5 MAb (antibody, V domains shown)
VH: EVKLEQSGAELVKPGASVKISCKASGYTFTDHVIHWVKQRPEQGLEWIGFISPGNGDIRYNEKFKDKATLTADKSSSTAYMQLNSLTSEDSAVYFCKRSFYYYDDNYGDYWGQGTTLTVSS
VL: QIVLTQSPAIMSASLGERVTMTCTASSSVSSSYFHWYQQKPGSSPKLWIYTTSNLASGVPARFSGSGSGTSYSLTISSMEAEDAATYYCHQYHRSPLTFGAGTKLELKR
Regarding B3, the A450 with 38C13 scFv protein [12] is 0.014 A450 and 0.015 A450; with 38C13 scFv protein [13], 0.106 A450 and 0.113 A450; in the assay with 38C13 scFv protein [14], 0.061 A450; with 38C13 scFv protein [15] it was 0.39 A450 and 0.397 A450; in the assay with 38C13 scFv protein [16] it was 0.198 A450 and 0.194 A450; in the assay with 38C13 scFv protein [17] it was 0.295 A450 and 0.307 A450. Also, the A450 with 38C13 scFv protein [18] was 0.03 A450 and 0.029 A450; with 38C13 scFv protein [19] it was 0.521 A450 and 0.52 A450; with 38C13 scFv protein [20] it was 0.514 A450 and 0.517 A450; with 38C13 scFv protein [21], 0.477 A450 and 0.482 A450; with 38C13 scFv protein [22], 0.007 A450 and 0.004 A450.

B4: pLSBC1792 produced S1C5 Fab (Fab, V domains shown)
VH: EVKLEQSGAELVKPGASVKISCKASGYTFTDHVIHWVKQRPEQGLEWIGFISPGNGDIRYNEKFKDKATLTADKSSSTAYMQLNSLTSEDSAVYFCKRSFYYYDDNYGDYWGQGTTLTVSS
VL: QIVLTQSPAIMSASLGERVTMTCTASSSVSSSYFHWYQQKPGSSPKLWIYTTSNLASGVPARFSGSGSGTSYSLTISSMEAEDAATYYCHQYHRSPLTFGAGTKLELKR
In the case of B4, the A450 with 38C13 scFv protein [1] was 0.524 A450 and 0.504 A450; in the assay with 38C13 scFv protein [2] it was 0.366 A450 and 0.35 A450; with 38C13 scFv protein [3] it was 0.09 A450 and 0.094 A450; in the assay with 38C13 scFv protein [4], 0.487 A450 and 0.485 A450; in the assay with 38C13 scFv protein [5], 0.01 A450 and 0.011 A450; in the assay with 38C13 scFv protein [6], 0.468 A450 and 0.449 A450. For the same molecule, the A450 with 38C13 scFv protein [7] is 0.025 A450 and 0.019 A450; with 38C13 scFv protein [8], 0.263 A450 and 0.247 A450; with 38C13 scFv protein [9], 0.168 A450 and 0.154 A450; with 38C13 scFv protein [10], 0.521 A450 and 0.519 A450; in the assay with 38C13 scFv protein [11], 0.049 A450 and 0.041 A450.
